B1: D domain of SEQ ID NO: 657 (designed binder)
chain: MGSWHEFWQRLEAIEGRLWALGGSEAELADFESLIADFEEQLQEYKGKGNPEVEALMAEAEAIDNELRAYRHN
B2: D domain of SEQ ID NO: 658 (designed binder)
chain: MGSWYEFEQRLEAIEWRLGALGGSEAELATFEEDIADFEEWLQEYKGKGNPEVEALQYEAYAIAEELHAYRHN
B3: D domain of SEQ ID NO: 656 (designed binder)
chain: MGSWFEFETRLEAIDLRLWALGGSEAELATFEDVIAFFEDWLQFYKGKGNPEVEALKMEAWAIGEELHAYRHN
B4: D domain of SEQ ID NO: 659 (designed binder)
chain: MGSWYEFENRLFAIEERLWALGGSEAELAWFEYEIANFEWGLQSYKGKGNPEVEALDNEAEAIDIELAAYRHN
B5: D-domain SEQ ID NO: 79 (designed binder)
chain: MGSWVEFKARLEAISSRLTALGGSEAELAAFEKEIAAFESELQAYKGKGNPEVEELRYSAALIRVYLQAYRHN
B6: D-domain SEQ ID NO: 101 (designed binder)
chain: MGSWVEFYDRLEAIRYRLSALGGSEAELAAFEKEIAAFESELQAYKGKGNPEVEELRYIAAVIRYRLQAYRHN
B7: D-domain SEQ ID NO: 92 (designed binder)
chain: MGSWTEFANRLEAINARLHALGGSEAELAAFEKEIAAFESELQAYKGKGNPEVEELRFSAALIRVYLQAYRHN
B8: D-domain SEQ ID NO: 121 (designed binder)
chain: MGSWSEFEERLAAIGSRLFALGGSEAELAAFEKEIAAFESELQAYKGKGNPEVETLRFDAALIRIYLQAYRHN
B9: D-domain SEQ ID NO: 84 (designed binder)
chain: MGSWVEFHNRLSAISDRLGALGGSEAELAAFEKEIAAFESELQAYKGKGNPEVEELRYSAALIRVMLQAYRHN
B10: D-domain SEQ ID NO: 80 (designed binder)
chain: MGSWSEFYTRLEAINNRLHALGGSEAELAAFEKEIAAFESELQAYKGKGNPEVEELRYTAALIRIYLQAYRHN
B11: D-domain SEQ ID NO: 81 (designed binder)
chain: MGSWAEFYHRLDAISSRLRALGGSEAELAAFEKEIAAFESELQAYKGKGNPEVEELRYTAALIRIYLQAYRHN
B12: D-domain SEQ ID NO: 89 (designed binder)
chain: MGSWTEFSQRLGAISERLYALGGSEAELAAFEKEIAAFESELQAYKGKGNPEVEELRYSAALIRFMLQAYRHN
B13: D-domain SEQ ID NO: 96 (designed binder)
chain: MGSWWEFEDRLSAIMERLHALGGSEAELAAFEKEIAAFESELQAYKGKGNPEVEELRYRAAIIRVYLQAYRHN
B14: D-domain SEQ ID NO: 104 (designed binder)
chain: MGSWSEFSDRLHAISDRLQALGGSEAELAAFEKEIAAFESELQAYKGKGNPEVEELRIQAAIIRVWLQAYRHN
B15: D-domain SEQ ID NO: 103 (designed binder)
chain: MGSWEEFSERLEAISIRLRALGGSEAELAAFEKEIAAFESELQAYKGKGNPEVEELRVSAAIIRVWLQAYRHN
B16: D-domain SEQ ID NO: 85 (designed binder)
chain: MGSWNEFEDRLSAISARLSALGGSEAELAAFEKEIAAFESELQAYKGKGNPEVEELRYSAALIRVMLQAYRHN
B17: D-domain SEQ ID NO: 185 (designed binder)
chain: MGSWVEFWDRLGAIRERLQALGGSEAELAAFEKEIAAFESELQAYKGKGNPEVEKLRYTAAAIRHYLQAYRHN
B18: D-domain SEQ ID NO: 91 (designed binder)
chain: MGSWTEFEHRLEAIAGRLNALGGSEAELAAFEKEIAAFESELQAYKGKGNPEVEELRYSAALIRFWLQAYRHN
B19: D-domain SEQ ID NO: 100 (designed binder)
chain: MGSWVEFYHRLEAIRYRLSALGGSEAELAAFEKEIAAFESELQAYKGKGNPEVEELRYVAAVIRYRLQAYRHN
B20: D-domain SEQ ID NO: 83 (designed binder)
chain: MGSWSEFDQRLAAIYQRLNALGGSEAELAAFEKEIAAFESELQAYKGKGNPEVEELRYSAALIRVMLQAYRHN
B21: D-domain SEQ ID NO: 72 (designed binder)
chain: MGSWVEFQDRLEAITDRLYALGGSEAELAAFEKEIAAFESELQAYKGKGNPEVEELRYSAAMIRVILQAYRHN
B22: D-domain SEQ ID NO: 99 (designed binder)
chain: MGSWTEFRDRLGAIYHRLDALGGSEAELAAFEKEIAAFESELQAYKGKGNPEVEELRYQAAIIRVYLQAYRHN
B23: D-domain SEQ ID NO: 193 (designed binder)
chain: MGSWVEFWDRLGAIRERLEALGGSEAELAAFEKEIAAFESELQAYKGKGNPEVEKLRYVAAVIRHRLQAYRHN
B24: D-domain SEQ ID NO: 97 (designed binder)
chain: MGSWVEFEERLAAIATRLHALGGSEAELAAFEKEIAAFESELQAYKGKGNPEVEELRWRAAIIRVYLQAYRHN
B25: D-domain SEQ ID NO: 82 (designed binder)
chain: MGSWTEFASRLVAIRQRLQALGGSEAELAAFEKEIAAFESELQAYKGKGNPEVEELRYSAAIIRVMLQAYRHN
B26: D-domain SEQ ID NO: 86 (designed binder)
chain: MGSWVEFEYRLVAIFDRLQALGGSEAELAAFEKEIAAFESELQAYKGKGNPEVEELRYQAALIRVMLQAYRHN
B27: D-domain SEQ ID NO: 73 (designed binder)
chain: MGSWVEFQERLMAISDRLYALGGSEAELAAFEKEIAAFESELQAYKGKGNPEVEELRWQAAMIRYTLQAYRHN
B28: D-domain SEQ ID NO: 120 (designed binder)
chain: MGSWHEFYYRLEAIEQRLHALGGSEAELAAFEKEIAAFESELQAYKGKGNPEVETLRFDAALIRIYLQAYRHN
B29: D-domain SEQ ID NO: 88 (designed binder)
chain: MGSWYEFSMRLSAIWERLHALGGSEAELAAFEKEIAAFESELQAYKGKGNPEVEELRYQAALIRFYLQAYRHN
B30: D-domain SEQ ID NO: 112 (designed binder)
chain: MGSWTEFHVRLSAIWDRLVALGGSEAELAAFEKEIAAFESELQAYKGKGNPEVEELRFHAAIIRIVLQAYRHN
B31: D-domain SEQ ID NO: 93 (designed binder)
chain: MGSWEEFDRRLYAIARRLEALGGSEAELAAFEKEIAAFESELQAYKGKGNPEVEELRYQAALIRVWLQAYRHN
B32: D-domain SEQ ID NO: 111 (designed binder)
chain: MGSWTEFDHRLGAIWERLVALGGSEAELAAFEKEIAAFESELQAYKGKGNPEVEELRFHAAIIRIFLQAYRHN
B33: D-domain SEQ ID NO: 90 (designed binder)
chain: MGSWTEFHDRLEAITHRLNALGGSEAELAAFEKEIAAFESELQAYKGKGNPEVEELRYSAALLRVFLQAYRHN
B34: D-domain SEQ ID NO: 78 (designed binder)
chain: MGSWVEFRSRLEAISNRLRALGGSEAELAAFEKEIAAFESELQAYKGKGNPEVEELRTTAALIRVYLQAYRHN
B35: D-domain SEQ ID NO: 95 (designed binder)
chain: MGSWSEFYDRLKAIADRLHALGGSEAELAAFEKEIAAFESELQAYKGKGNPEVEELRTEAAIIRVYLQAYRHN
B36: D-domain SEQ ID NO: 114 (designed binder)
chain: MGSWTEFHERLQAIWFRLHALGGSEAELAAFEKEIAAFESELQAYKGKGNPEVEELRFRAAIIRLYLQAYRHN
B37: D-domain SEQ ID NO: 87 (designed binder)
chain: MGSWVEFQGRLGAIHERLQALGGSEAELAAFEKEIAAFESELQAYKGKGNPEVEELRYSAALIRVFLQAYRHN
B38: D-domain SEQ ID NO: 113 (designed binder)
chain: MGSWNEFDNRLQAIWDRLHALGGSEAELAAFEKEIAAFESELQAYKGKGNPEVEELRFHAAMIRITLQAYRHN
B39: D-domain SEQ ID NO: 94 (designed binder)
chain: MGSWIEFHQRLEAIVTRLEALGGSEAELAAFEKEIAAFESELQAYKGKGNPEVEELRYQAALIRVFLQAYRHN
B40: D-domain SEQ ID NO: 194 (designed binder)
chain: MGSWVEFWDRLGAIRERLQALGGSEAELAAFEKEIAAFESELQAYKGKGNPEVEELRASAAAIRIALQAYRHN

Here are results for 40 molecules from US20250026849A1 (ARCELLX, published 2025).

One assay has as its target T1, CD123 (Homo sapiens (Human), UniProt P26951 19-305, limits assumed).
T1 construct: The CD123 construct used in the ELISA is not described; also called CD123-Signal
T1 sequence: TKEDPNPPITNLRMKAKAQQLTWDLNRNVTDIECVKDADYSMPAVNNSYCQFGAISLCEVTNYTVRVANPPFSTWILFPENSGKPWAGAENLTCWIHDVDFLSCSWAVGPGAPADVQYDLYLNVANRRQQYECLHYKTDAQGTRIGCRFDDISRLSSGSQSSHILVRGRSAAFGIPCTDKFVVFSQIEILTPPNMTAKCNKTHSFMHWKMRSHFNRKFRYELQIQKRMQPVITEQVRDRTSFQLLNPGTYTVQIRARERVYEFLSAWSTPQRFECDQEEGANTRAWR
The experiment in a line: ELISA. On the set-up: unit not given here. (An ELISA detects its analyte on a solid surface through an enzyme-linked reagent.)
B1 showed an ELISA_avg of 7.

Consider B2, for which the ELISA_avg was 4.4.

The molecule B3 yielded an ELISA_avg of 6.6.

B4 gave an ELISA_avg of 3.3.

Another assay deals with T2, BCMA (Homo sapiens (Human), UniProt Q02223 1-54, limits assumed).
T2 sequence: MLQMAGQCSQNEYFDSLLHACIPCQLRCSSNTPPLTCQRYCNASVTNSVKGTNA
As to the kind of experiment: ELISA, format not described. Set-up: unit not given here.
On to B5, for which the ELISA_avg is 8.71.

In turn, B6 returned an ELISA_avg of 5.64.

B7 showed an ELISA_avg of 6.42.

On to B8, for which the ELISA_avg came to 4.85.

For B9, the ELISA_avg came out at 7.36.

Turning to B10, the ELISA_avg amounted to 3.66.

B11 came in with an ELISA_avg of 4.31.

Molecule B12 had an ELISA_avg of 4.15.

B13 returned an ELISA_avg of 10.4.

With B14, the ELISA_avg turned out to be 6.37.

On to B15, for which the ELISA_avg turned out to be 11.3.

Regarding B16, the ELISA_avg was 4.09.

In turn, B17 gave an ELISA_avg of 5.22.

Molecule B18 returned an ELISA_avg of 6.34.

B19 showed an ELISA_avg of 7.8.

Molecule B20 yielded an ELISA_avg of 7.72.

As for B21, the ELISA_avg worked out at 8.88.

On to B22, for which the ELISA_avg was 6.7.

B23 yielded an ELISA_avg of 4.18.

B24 registered an ELISA_avg of 16.3.

The molecule B25 showed an ELISA_avg of 7.99.

As to B26, the ELISA_avg stood at 7.63.

B27 had an ELISA_avg of 6.7.

B28 yielded an ELISA_avg of 3.73.

With B29, the ELISA_avg was determined as 7.12.

B30 yielded an ELISA_avg of 23.6.

B31: the ELISA_avg came to 8.85.

Regarding B32, the ELISA_avg came out at 9.54.

Turning to B33, the ELISA_avg came out at 5.79.

In the case of B34, the ELISA_avg amounted to 3.04.

B35 displayed an ELISA_avg of 8.21.

Turning to B36, the ELISA_avg stood at 12.1.

For the molecule B37, the ELISA_avg was determined as 3.83.

For B38, the ELISA_avg came out at 9.87.

On to B39, for which the ELISA_avg is 8.

For the molecule B40, the ELISA_avg came out at 3.07.
